Article PMC3751641, “Mena/VASP and αII-Spectrin complexes regulate cytoplasmic actin networks in cardiomyocytes and protect from conduction abnormalities and dilated cardiomyopathy” (Cell Communication and Signaling : CCS, 2013)

Key:
[1] = molecular target: T1, SH3i, αII-Spectrin splice variant, endogenous in adult mouse heart (mouse (endogenous in mouse heart), UniProt P16546 1-2472); assay: co-IP; adult mouse heart lysate incubated with 5 μg purified anti-Mena, anti-αII-Spectrin or anti-SH3i antibodies, then protein A-sepharose; washed in lysis buffer; Western blot; GST-specific antibodies as control; conditions: partners not purified
T1 construct: source: endogenous, adult mouse heart lysate

[2] = molecular target: T2, GST-α9A (α9 repeat of the αII-Spectrin splice variant SH3i, with the alternatively spliced 20 amino acids) (mouse, UniProt P16546 893-1088); assay: pull-down; 5 μg GST or equimolar GST-fusion proteins immobilised on glutathione sepharose, incubated with cleared adult mouse heart lysate (40 mM Hepes-NaOH pH 7.4, 75 mM NaCl, 1% NP40, protease inhibitors); blot with anti-Mena; conditions: one partner purified
T2 construct: mouse αII-Spectrin, splice variant SH3i (protein ID AAI50942), amino acids Q893-E1088: the α9 repeat with the SH3 domain and the 20-residue insert T1053-L1072; numbers count on: SH3i, AAI50942; cDNA subcloned into the pGEX-6P2 vector

B1: Mena (mammalian Enabled) (natural protein, mouse (endogenous in mouse heart), UniProt Q03173-3 1-541, looked up)
chain: MSEQSICQARAAVMVYDDANKKWVPAGGSTGFSRVHIYHHTGNNTFRVVGRKIQDHQVVINCAIPKGLKYNQATQTFHQWRDARQVYGLNFGSKEDANVFASAMMHALEVLNSQEAGPTLPRQNSQLPAQVQNGPSQEELEIQRRQLQEQQRQKELERERMERERLERERLERERLERERLEQEQLERQRQEREHVERLERERLERLERERQERERERLEQLEREQVEWERERRMSNAAAPASAETPLNPELGDSSASEPGLQAASQPAESPTPQGLVLGPPAPPPPPPLPSGPAYASALPPPPGPPPPPPLPSTGPPPPPPPPPPLPNQAPPPPPPPPAPPLPASGIFSGSTSEDNRPLTGLAAAIAGAKLRKVSRVEDGSFPGGGNTGSVSLASSKADAGRGNGPLPLGGSGLMEEMSALLARRRRIAEKGSTIETEQKEDRNEDAEPITAKAPSTSTPEPTRKPWERTNTMNGSKSPVISRPKSTPSSQPSANGVQTEGLDYDRLKQDILDEMRKELAKLKEELIDAIRQELSKSNTA
notes: mouse Mena, endogenous; two isoforms exist in the mouse heart, the general one (~80 kDa, 541 aa) and the neuronal splice variant (~140 kDa); source: endogenous, adult mouse heart lysate
B1 was tested, and the “fold more Mena precipitated than by general αII-Spectrin-specific antibodies” value [1] was 8 fold and the “fold more Mena precipitated than by α9 or SH3” value [2] was no less than 10 fold.
